T1: unconjugated human TPBG/5T4 protein with a c-terminal polyhistidine and Avi tag (AcroBiosystems Cat. No. … (human, UniProt Q13641 32-355))
T1 construct: Bought protein; also called Acro TPGH52E5; Acro Catalog No. TPGH52E; not shown: C-terminal polyhistidine and Avi tag
T1 sequence: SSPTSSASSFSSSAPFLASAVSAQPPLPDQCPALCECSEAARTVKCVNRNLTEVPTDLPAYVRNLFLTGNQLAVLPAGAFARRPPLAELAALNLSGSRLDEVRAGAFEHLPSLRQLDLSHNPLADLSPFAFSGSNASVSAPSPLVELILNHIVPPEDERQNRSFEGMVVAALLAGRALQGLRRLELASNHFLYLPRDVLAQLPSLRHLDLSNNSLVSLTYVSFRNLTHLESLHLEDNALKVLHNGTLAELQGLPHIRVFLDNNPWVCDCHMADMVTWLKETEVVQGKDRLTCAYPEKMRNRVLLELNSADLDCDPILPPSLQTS

T2: rat 5T4 on transfected HEK293 and CHO cells (rat, UniProt Q5PQV5 32-426)
T2 construct: whole, on cells
T2 sequence (looked up): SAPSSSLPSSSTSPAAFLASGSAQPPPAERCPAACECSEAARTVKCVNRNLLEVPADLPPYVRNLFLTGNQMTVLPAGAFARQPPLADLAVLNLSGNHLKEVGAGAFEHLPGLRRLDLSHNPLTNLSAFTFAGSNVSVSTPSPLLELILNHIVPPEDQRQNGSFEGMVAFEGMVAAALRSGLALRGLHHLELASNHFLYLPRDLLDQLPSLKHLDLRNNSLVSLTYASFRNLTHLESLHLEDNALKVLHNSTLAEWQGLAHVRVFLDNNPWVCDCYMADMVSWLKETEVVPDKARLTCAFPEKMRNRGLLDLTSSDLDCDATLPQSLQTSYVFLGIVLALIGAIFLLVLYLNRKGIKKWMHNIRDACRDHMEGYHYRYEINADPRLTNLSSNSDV

B1: mAbA17 (antibody, V domains shown)
VH: EVQLVESGGGLVQPGGSLRLSCAASGFTFSRYWIHWVRQAPGKGLEWVAAIFPYSGSTLYADSVKGRFTISADTSKNTAYLQMNSLRAEDTAVYYCARSPSRSILPSGLDYWGQGTLVTVSS
VL: DIQMTQSPSSLSASVGDRVTITCRASQSVSSAVAWYQQKPGKAPKLLIYSASSLYSGVPSRFSGSRSGTDFTLTISSLQPEDFATYYCQQGDGSPYTFGQGTKVEIKR
notes: also called Antibody mAbA17
B2: mAbA4 (antibody, V domains shown)
VH: EVQLVESGGGLVQPGGSLRLSCAASGFTFSRYYIHWVRQAPGKGLEWVAFISPGGSYTYYADSVKGRFTISADTSKNTAYLQMNSLRAEDTAVYYCAREYYSMGVLDYWGQGTLVTVSS
VL: DIQMTQSPSSLSASVGDRVTITCRASQSVSSAVAWYQQKPGKAPKLLIYSASSLYSGVPSRFSGSRSGTDFTLTISSLQPEDFATYYCQQAYESPYTFGQGTKVEIKR
notes: also called Antibody mAbA4
B3: mAbA15 (antibody, V domains shown)
VH: EVQLVESGGGLVQPGGSLRLSCAASGFTFSSYYIHWVRQAPGKGLEWVAYITSTGSYTEYADSVKGRFTISADTSKNTAYLQMNSLRAEDTAVYYCARYDRSTRYSGLDYWGQGTLVTVSS
VL: DIQMTQSPSSLSASVGDRVTITCRASQSVSSAVAWYQQKPGKAPKLLIYSASSLYSGVPSRFSGSRSGTDFTLTISSLQPEDFATYYCQQAYATPVTFGQGTKVEIKR
notes: also called Antibody mAbA15
B4: mAbA4: 5T4 antibody comprising VH of SEQ ID NO:25 and VL of SEQ ID NO:26 (antibody, V domains shown)
VH: EVQLVESGGGLVQPGGSLRLSCAASGFTFSRYYIHWVRQAPGKGLEWVAFISPGGSYTYYADSVKGRFTISADTSKNTAYLQMNSLRAEDTAVYYCAREYYSMGVLDYWGQGTLVTVSS
VL: DIQMTQSPSSLSASVGDRVTITCRASQSVSSAVAWYQQKPGKAPKLLIYSASSLYSGVPSRFSGSRSGTDFTLTISSLQPEDFATYYCQQAYESPYTFGQGTKVEIK
modifications: Antibody mAbA4 VH Sequence; Antibody mAbA4 VL Sequence
B5: mAbA15: 5T4 antibody comprising VH of SEQ ID NO:44 and VL of SEQ ID NO:45 (antibody, V domains shown)
VH: EVQLVESGGGLVQPGGSLRLSCAASGFTFSSYYIHWVRQAPGKGLEWVAYITSTGSYTEYADSVKGRFTISADTSKNTAYLQMNSLRAEDTAVYYCARYDRSTRYSGLDYWGQGTLVTVSS
VL: DIQMTQSPSSLSASVGDRVTITCRASQSVSSAVAWYQQKPGKAPKLLIYSASSLYSGVPSRFSGSRSGTDFTLTISSLQPEDFATYYCQQAYATPVTFGQGTKVEIK
modifications: Antibody mAbA15 VH Sequence; Antibody mAbA15 VL Sequence
B6: mAbA17: 5T4 antibody comprising VH of SEQ ID NO:62 and VL of SEQ ID NO:63 (antibody, V domains shown)
VH: EVQLVESGGGLVQPGGSLRLSCAASGFTFSRYWIHWVRQAPGKGLEWVAAIFPYSGSTLYADSVKGRFTISADTSKNTAYLQMNSLRAEDTAVYYCARSPSRSILPSGLDYWGQGTLVTVSS
VL: DIQMTQSPSSLSASVGDRVTITCRASQSVSSAVAWYQQKPGKAPKLLIYSASSLYSGVPSRFSGSRSGTDFTLTISSLQPEDFATYYCQQGDGSPYTFGQGTKVEIK
modifications: Antibody mAbA17 VH Sequence; Antibody mAbA17 VL Sequence

Tests used:
[1] = target: T1, unconjugated human TPBG/5T4 protein …; assay: ELISA on coated human 5T4 His-Avi (Acro TPG-H52E5); antibody condition: PBS time 48 hr.
Procedure: (§1) A. Normal Binding Unconjugated antibodies were tested for their ability to bind to human 5T4 (hu5T4) using ELISA. On Day 1, unconjugated human TPBG/5T4 protein with a c-terminal polyhistidine and Avi (AVITAG™) tag (AcroBiosystems (Newark, DE, USA), Cat. No. TPG-H52E5) was diluted 2 μg/mL in PBS, mixed thoroughly, plated 100 μL per well in a 96-well plate (Nunc MAXISORP®) and incubated overnight at 4° C.
(§2) 3. Oxidative Stress. Several unconjugated antibodies were tested for their ability to bind to 5T4 using ELISA in an oxidative environment. Solutions of 1 mg/mL to 10 mg/mL of antibody in 20 mM citrate/50 mM NaCl at a pH of 5.5 were prepared and stored at 37° C. for 1 to 2 weeks.

[2] = target: T1, unconjugated human TPBG/5T4 protein …; assay: ELISA on coated human 5T4 His-Avi (Acro TPG-H52E5); antibody condition: pH 8.5 Day 4
Procedure: as §1

[3] = target: T1, unconjugated human TPBG/5T4 protein …; assay: ELISA on coated human 5T4 His-Avi (Acro TPG-H52E5); antibody condition: pH 8.5 Day 14
Procedure: as §1

[4] = target: T2, rat 5T4 on transfected HEK293 and CHO …; assay: cell binding on transfected HEK293 and CHO cells
[5] = target: T1, unconjugated human TPBG/5T4 protein …; assay: ELISA on coated human 5T4 His-Avi (Acro TPG-H52E5); antibody condition: PBS + H2O2 time 0
Procedure: as §1, §2

[6] = target: T1, unconjugated human TPBG/5T4 protein …; assay: ELISA on coated human 5T4 His-Avi (Acro TPG-H52E5); antibody condition: pH 5.5 Day 7
Procedure: as §1

[7] = target: T1, unconjugated human TPBG/5T4 protein …; assay: ELISA on coated human 5T4 His-Avi (Acro TPG-H52E5); antibody condition: pH 5.5 Day 14
Procedure: as §1
2. Low pH Stress Test. Several unconjugated antibodies were tested for their ability to bind to 5T4 using ELISA under acidic (low pH) conditions. […]

[8] = Protein thermal shift (melting temperature); type: physicochemical
Procedure: Samples for protein thermal shift experiments (melting temperature) were prepared using the APPLIED BIOSYSTEMS™ PROTEIN THERMAL SHIFT™ Dye Kit (ThermoFisher Scientific Cat. No. 4461146). Data were collected using a QUANTSTUDIO™ 3 instrument (ThermoFisher Scientific Cat. No. A28567) with PROTEIN THERMAL SHIFT™ Software v1.4 (ThermoFisher Scientific Cat. No. 466038). Briefly, PROTEIN THERMAL SHIFT™ dye (1000×) was diluted in water to 8× in deionized water. Samples were prepared on ice by combining 5 μL of PROTEIN THERMAL SHIFT™ Buffer, 12.5 μL of protein solution, and 2.5 μL of the diluted PROTEIN THERMAL SHIFT™ Dye (8×) for a total reaction solution volume of 20 μL. The reaction solution was mixed 10 times with a pipette. Tubes were then spun down at 1000 rpm for 1 minute and then incubated on ice until analysis. Samples were loaded onto the instrument plate, which were then loaded into a QUANTSTUDIO™ 3 Real-Time PCR System instrument. Data was collected using the standard Melt Curve experiment with the following conditions: Step 1 temperature: 25° C. for 2 minutes; Step 2 temperature: 99° C. for 2 minutes with continuous fast ramp mode (Step 1: 1.6° C./sec; Step 2: 0.05° C./sec). Raw melting temperature data were deconvoluted within the QUANTSTUDIO™ 3 analysis software.

Row | Molecule | EC50 [1] [pM] | EC50 [2] [pM] | EC50 [3] [pM] | binding result [4] | EC50 [5] [pM] | EC50 [6] [pM] | EC50 [7] [pM] | CH2 Tm [8] | Fab Tm [8]
1 | B1 | 185 | 150 | 167 | no binding | 188 | 190 | 153 | – | –
2 | B2 | 189 | 114 | 136 | no binding | 225 | 124 | 122 | – | –
3 | B3 | 203 | 133 | 131 | no binding | 191 | 132 | 138 | – | –
4 | B4 | – | – | – | – | – | – | – | 69.18 | 89.94
5 | B5 | – | – | – | – | – | – | – | 70.07 | 86.38
6 | B6 | – | – | – | – | – | – | – | 70.06 | 81.92

Reference: patent publication US20250295803A1, “5T4 ANTIBODY-DRUG CONJUGATES AND USES THEREOF” (EXELIXIS, INC., priority 2022, published 2025)
